Source: the supplement of paper PMC9170038

Tested on: MS2 coat protein
Experiment: apparent KD of MS2 coat protein; higher = weaker reporter binding
Settings: Eterna round: R107
Method in brief: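 Designed RNA switches were transcribed on-chip from Illumina sequencing clusters. They were then titrated with SNAP-549-labelled MS2 coat protein (twofold steps, 0.7 or 1.5 nM to 3 µM; 0.8–1.5 h to 10–20 min per step) in 100 mM Tris-HCl pH 7.5, 80 mM KCl, 4 mM MgCl2, without or with constant ligand. Apparent KD is the per-design median of normalised cluster binding-curve fits.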

[1] = input ligand: theophylline 20 uM
[2] = input ligand: theophylline 2 mM
[3] = input ligand: tryptophan 2.4 mM

Sequence | apparent KD of MS2 coat protein (input ligand: arginine 13.2 mM) | apparent KD of MS2 coat protein [1] | apparent KD of MS2 coat protein [2] | apparent KD of MS2 coat protein [3] | apparent KD of MS2 coat protein (input ligand: none)
CCUAUGCAGUCGGCCGCCACUGAUAAAAUUAUUUUUACCUCAGAAACAUGAGGAUCACCCAUGUACAGGACCGGGACUGUAUAGG [Ex Tryptophan B 17] | 24.2 nM | 20.1 nM | 22.8 nM | – | –
AGGCAGUAGGUGAUCCACUGCCAAGGUGAUACCAGCAUCGAAAGAUGCCCUUGGCAGCACCAACAUGAGGAUCACCCAUGUAAUA [(MT)''-(M)'-(T')-(Theo)-(Ms2)_Design1/22_9] | 36.9 nM | 186 nM | – | 99.2 nM | –
CCUAUGCAGUCGGCCGCCACUGUACAUGAGGAUCACCCAUGUUCUAAUAUAAUAAGAACUGAAAUCAGGACCGGGACUGUAUAGG [Ex Tryptophan B 2] | 1660 nM | 27.8 nM | 19.7 nM | 19.3 nM | 20.1 nM
UCCUCCUCCGCAAGGAGGAGGAGUUGCGAUACCAGCACGGAAACGUGCCCUUGGCAGCGCACAUGAGGAUCACCCAUGUCAUGUU [#1 Exclusion - Theophylline A Attempt #9 (HarryS)] | 18.7 nM | 23.8 nM | – | 16.3 nM | –
CACAUGAGGAUCACCCAUGUCUGAACUGAAGGAGCGCUAAAUAAGGCAGGUAGGUCGCGGAAUCGUGUGUGCAUAUGCACACGCG [9.U] | 17.8 nM | 35.7 nM | 25.3 nM | 18 nM | 24 nM
UUUAAAAUAACAGAUACCAGCGUGUUAUAAAACAUGAGGAUCACCCAUGUAGUGAUCAAGCGCCCUUGGCAGCUGGUAUUUUAGG [7.E] | 186 nM | 161 nM | – | 132 nM | –
UUGUUGUUUGGAAGGAGCGUGUAUGAUUAAGAACAUGAGGAUCACCCAUGUUGUAGGAUAGCACAGGUAGGUCGCCGGGUGGUGG [11.W] | 18.8 nM | 22.5 nM | 23.5 nM | 14.6 nM | 14.8 nM
UUUGAGAUAACAGAUACCAGCGUGUUAUAAAACAUGAGGAUCACCCAUGUAGUGAUCAAGCGCCCUUGGCAGCUGGUGUUUUAGG [7.H] | 21.1 nM | 383 nM | 469 nM | 141 nM | 102 nM
UAUAAAAUAACAGAUACCAGCGUGUUAUAAAACAUGAGGAUCACCCAUGUAGUGAUCAAGCGCCCUUGGCAGCUGGUAUUUUAUG [7.C] | 92.3 nM | 166 nM | – | 58.1 nM | –
AUUCAUGGAAACAUGACAUACAUAUCCGGUCGAGGACCGGUACGGCCGCCACUCGUUUGGAGGCACAUGAGGAUCACCCAUGUUA [SS Tryp A #8] | 21.3 nM | 34.4 nM | 25.9 nM | – | –
UAUAUAUAUAGUGAUACCAGCAGAGAAAACGUUUAUCCUAACAUGAGGAUCACCCAUGUAUGCCCUUGGCAGCGUUAUAUAUAUA [8.E] | 21.2 nM | 29.1 nM | – | 21.9 nM | –
CGGACAUGAGGAUCACCCAUGUCGUCGACGCGAGGACCGGUACGGCCGCCACUCGCAUGCCAAUGAGCGCAUGCGGCCUGGGUAU [Exclusion Tryp A GF5] | 15.8 nM | 29 nM | 21 nM | – | 19.5 nM
GACCCAUGAGUUGUAAAAGCUCAUGGGUCGCGAGGACCGGUACGGCCGCCACUCGGCUGUACAUGAGGAUCACCCAUGUCAGGGU [#1 Same State - Tryptophan A Attempt #27 (HarryS)] | 44.8 nM | 568 nM | 527 nM | – | –
CUUGUGCUGACGGCCGCCACUUUAUGGGAGUCCUGUUCUGAUUGAUACAUGAGGAUCACCCAUGUAAGGACCGGGUCGUACCAUA [theeternabot_exclusion_MS2_Trp_B_22] | 22.7 nM | 27.4 nM | 22.7 nM | – | –
UUUUUUAACUGAAGGAGCGUCACAUGAGGAUCACCCAUGUAUUAGAUGAGAAGGAUCUUGUGGCAGGUAGGUCGCAGAGGAAGGG [e-argB-V] | 99.6 nM | 187 nM | 181 nM | 136 nM | 389 nM
GGUAUGUAUUCGGAAACGAAUGCAUACCAACGAGGACCGGUACGGCCGCCACUCGCCGUCCUCAAACAUGAGGAUCACCCAUGUA [Ex Tryptophan A 7] | 19.5 nM | 30.5 nM | 30.6 nM | – | –
CGACACCAGGCAAUCCAUCACCCGGCUGAUACCAGCUCUUUUGGAAGCCCUUGGCAGCAGAGAACAUGAGGAUCACCCAUGUCAG [theeternabot_exclusion_MS2_Theo_A_18] | 14.5 nM | 16.7 nM | – | 17 nM | –
ACAUGAGGAUCACCCAUGUAGUGGCACGAUACCAGCUGAUCCCGUGGCCCUUGGCAGCGUCCGGUGUGGUGCGCCGGGAUGGAGC [ZSZMULLIN] | 21.8 nM | 50.8 nM | 40.7 nM | 35.6 nM | 28.4 nM
ACAUGAGGAUCACCCAUGUAGCCUAGGGAAGGAGCGUCGUAAGAGACAGGUAGGUCGCCCGCAUGUGGAUCACCCAUGUCGAGGG [SSArg A #11] | 27.4 nM | 48.3 nM | 43.6 nM | 38.7 nM | 37.5 nM
